According to PMC3246441, “Structural Basis of Response Regulator Inhibition by a Bacterial Anti-Activator Protein” (PLoS Biology, 2011):
Values belong to the binder of their own block, whether it stands above or below them.

B1: RapF (natural protein, B. subtilis)
chain: GSMTGVISSSSIGEKINEWYMYIRRFSIPDAEYLRREIKQELDQMEEDQDLHLYYSLMEFRHNLMLEYLEPLEKMRIEEQPRLSDLLLEIDKKQARLTGLLEYYFNFFRGMYELDQREYLSAIKFFKKAESKLIFVKDRIEKAEFFFKMSESYYYMKQTYFSMDYARQAYEIYKEHEAYNIRLLQCHSLFATNFLDLKQYEDAISHFQKAYSMAEAEKQPQLMGRTLYNIGLCKNSQSQYEDAIPYFKRAIAVFEESNILPSLPQAYFLITQIHYKLGKIDKAHEYHSKGMAYSQKAGDVIYLSEFEFLKSLYLSGPDEEAIQGFFDFLESKMLYADLEDFAIDVAKYYHERKNFQKASAYFLKVEQVRQLIQGGVSLYEIEV
notes: two heterologous residues (Gly-Ser) derived from the thrombin cleavage signal, left after removal of the N-terminal GST; RapF, Bacillus subtilis, residues 1-381; The purification is told under 'Protein Purification for Crystallization'; Monomer by SE AUC; also called wild-type RapF; source: E. coli BL21, purified (glutathione resin, thrombin cleavage, anion exchange, gel filtration); not shown: …
B8: His-ComA (wild-type full-length ComA with His tag) (natural protein, B. subtilis, UniProt P14204 1-214, looked up)
chain: MKKILVIDDHPAVMEGTKTILETDSNLSVDCLSPEPSEQFIKQHDFSSYDLILMDLNLGGEVNGMELSKQILQENPHCKIIVYTGYEVEDYFEEAIRAGLHGAISKTESKEKITQYIYHVLNGEILVDFAYFKQLMTQQKTKPAPSSQKEQDVLTPRECLILQEVEKGFTNQEIADALHLSKRSIEYSLTSIFNKLNVGSRTEAVLIAKSDGVL
notes: ComA response regulator, Bacillus subtilis, full length; Purification of His-ComA is in Text S1; also called ComA2

How the values were obtained:
[1] = target: B8; assay: SEC + other: total amino acid analysis; 40 µM RapF and 80 µM His-ComA in Buffer A on Superdex 200 HR10/30; fractions 12.0-13.5 ml, bands separated by SDS-PAGE and excised for total amino acid analysis (unpublished data); conditions: both partners purified
RapF [2] = target: B1; assay: crystal structure; RapF-ComAC co-crystals, vapor diffusion at 20°C, 1∶1 mixture of 100 µM RapF and ComAC; 6% PEG 8,000, 240 mM calcium acetate, 80 mM sodium cacodylate pH 6.5, 20% glycerol; 2.30 Å; conditions: both partners purified
RapF [3] = target: B1; assay: SEC; Superdex 200 HR10/30 in Buffer A; RapF 20 µM, His-ComA 40 µM, with PhrF 200 µM, incubated 30 min at 4°C; fractions by SDS-PAGE; conditions: both partners purified
RapF [4] = target: B1; assay: native gel or EMSA; 10 µM RapF and 10 µM ComA or His-ComA incubated in Buffer A (20 mM Tris pH 8.0, 300 mM NaCl, 5 mM MgCl2, 1 mM DTT, 5% glycerol) 30 min at 4°C; 12% Tris-glycine native PAGE at 4°C, Coomassie; disappearance of the ComA band as indicator; conditions: both partners purified
[5] = target: the molecule itself; assay: SEC; Superdex 200 HR10/30 in Buffer A; RapF 20 µM, His-ComA 40 µM, incubated 30 min at 4°C; fractions by SDS-PAGE; no PhrF
RapF-E71A = target: T1, RapF-E71A (B. subtilis, UniProt P71002 2-381, E71A); assay: native gel or EMSA; 10 µM RapF and 10 µM ComA or His-ComA incubated in Buffer A (20 mM Tris pH 8.0, 300 mM NaCl, 5 mM MgCl2, 1 mM DTT, 5% glycerol) 30 min at 4°C; 12% Tris-glycine native PAGE at 4°C, Coomassie; disappearance of the ComA band as indicator; conditions: both partners purified
T1 construct: RapF, Bacillus subtilis, with one alanine substitution; Text S1 may tell
T1 sequence: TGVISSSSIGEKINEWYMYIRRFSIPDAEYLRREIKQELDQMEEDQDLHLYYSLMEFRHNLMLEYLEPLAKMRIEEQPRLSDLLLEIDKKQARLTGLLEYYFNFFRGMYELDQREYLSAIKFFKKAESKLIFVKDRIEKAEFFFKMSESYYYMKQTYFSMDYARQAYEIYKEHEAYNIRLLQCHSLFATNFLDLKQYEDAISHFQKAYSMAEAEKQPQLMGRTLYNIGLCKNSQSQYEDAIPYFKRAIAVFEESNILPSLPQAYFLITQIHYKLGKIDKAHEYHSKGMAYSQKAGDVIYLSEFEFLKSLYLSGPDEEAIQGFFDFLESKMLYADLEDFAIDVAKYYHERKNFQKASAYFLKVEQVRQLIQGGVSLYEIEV

RapF-P27A = target: T2, RapF-P27A (B. subtilis, UniProt P71002 2-381, P27A); assay: as above; conditions: both partners purified
T2 construct: RapF, Bacillus subtilis, with one alanine substitution; Text S1 may tell
T2 sequence: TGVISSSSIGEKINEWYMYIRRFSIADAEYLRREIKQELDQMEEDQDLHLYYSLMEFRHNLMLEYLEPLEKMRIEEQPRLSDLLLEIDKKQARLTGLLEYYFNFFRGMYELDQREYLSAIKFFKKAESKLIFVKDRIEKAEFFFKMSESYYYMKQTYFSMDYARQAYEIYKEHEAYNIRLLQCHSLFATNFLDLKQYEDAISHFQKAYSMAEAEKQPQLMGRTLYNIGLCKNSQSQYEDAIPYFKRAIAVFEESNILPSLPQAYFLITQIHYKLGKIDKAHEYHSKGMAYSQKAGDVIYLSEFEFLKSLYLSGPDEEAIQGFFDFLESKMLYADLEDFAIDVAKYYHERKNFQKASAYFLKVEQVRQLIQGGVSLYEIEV

RapF [6] = target: B1; assay: native gel or EMSA; native PAGE binding studies with a broad concentration range of RapF and a fixed quantity of ComA (unpublished data), together with the qualitative gels; Kd is an estimate; conditions: both partners purified

Binder: B1
stoichiometry N [1]: 1

binding result (RapF [2]): binds
B2: ComA DNA binding domain (ComAC) (domain or fragment, B. subtilis, UniProt P14204 146-214, looked up)
chain: SSQKEQDVLTPRECLILQEVEKGFTNQEIADALHLSKRSIEYSLTSIFNKLNVGSRTEAVLIAKSDGVL
notes: also called His-ComAC

binding result (RapF [3]): binds
B3: PhrF peptide (peptide)
peptide: QRGMI
notes: mature PhrF signalling pentapeptide of Bacillus subtilis, cut from the pro-PhrF polypeptide; Free N- and C-termini as printed (NH2-QRGMI-COOH); also called synthetic PhrF peptide; NH2-QRGMI-COOH; source: synthetic peptide (LifeTein)

binding result (RapF [4]): binds
B4: ComA-T190A (His-ComA mutant) (natural protein, B. subtilis, UniProt P14204 1-214, looked up)
chain: MKKILVIDDHPAVMEGTKTILETDSNLSVDCLSPEPSEQFIKQHDFSSYDLILMDLNLGGEVNGMELSKQILQENPHCKIIVYTGYEVEDYFEEAIRAGLHGAISKTESKEKITQYIYHVLNGEILVDFAYFKQLMTQQKTKPAPSSQKEQDVLTPRECLILQEVEKGFTNQEIADALHLSKRSIEYSLASIFNKLNVGSRTEAVLIAKSDGVL
notes: ComA, Bacillus subtilis, full length, with one alanine substitution

binding result (RapF [4]): binds
B5: ComA-N194A (His-ComA mutant) (natural protein, B. subtilis, UniProt P14204 1-214, looked up)
chain: MKKILVIDDHPAVMEGTKTILETDSNLSVDCLSPEPSEQFIKQHDFSSYDLILMDLNLGGEVNGMELSKQILQENPHCKIIVYTGYEVEDYFEEAIRAGLHGAISKTESKEKITQYIYHVLNGEILVDFAYFKQLMTQQKTKPAPSSQKEQDVLTPRECLILQEVEKGFTNQEIADALHLSKRSIEYSLTSIFAKLNVGSRTEAVLIAKSDGVL
notes: as for B4

binding result (RapF [4]): binds
B6: ComA-Y187A (His-ComA mutant) (natural protein, B. subtilis, UniProt P14204 1-214, looked up)
chain: MKKILVIDDHPAVMEGTKTILETDSNLSVDCLSPEPSEQFIKQHDFSSYDLILMDLNLGGEVNGMELSKQILQENPHCKIIVYTGYEVEDYFEEAIRAGLHGAISKTESKEKITQYIYHVLNGEILVDFAYFKQLMTQQKTKPAPSSQKEQDVLTPRECLILQEVEKGFTNQEIADALHLSKRSIEASLTSIFNKLNVGSRTEAVLIAKSDGVL
notes: as for B4

binding result (RapF [4]): binds
B7: ComA-R157A (His-ComA mutant) (natural protein, B. subtilis, UniProt P14204 1-214, looked up)
chain: MKKILVIDDHPAVMEGTKTILETDSNLSVDCLSPEPSEQFIKQHDFSSYDLILMDLNLGGEVNGMELSKQILQENPHCKIIVYTGYEVEDYFEEAIRAGLHGAISKTESKEKITQYIYHVLNGEILVDFAYFKQLMTQQKTKPAPSSQKEQDVLTPAECLILQEVEKGFTNQEIADALHLSKRSIEYSLTSIFNKLNVGSRTEAVLIAKSDGVL
notes: as for B4

Binder: B8
stoichiometry N [5]: 2

binding result (RapF-E71A): binds
binding result (RapF-P27A): binds
Kd (RapF [6]): 1 to 10 µM
B9: ComA (wild-type full-length ComA, no tag named) (natural protein, B. subtilis, UniProt P14204 1-214, looked up)
chain: MKKILVIDDHPAVMEGTKTILETDSNLSVDCLSPEPSEQFIKQHDFSSYDLILMDLNLGGEVNGMELSKQILQENPHCKIIVYTGYEVEDYFEEAIRAGLHGAISKTESKEKITQYIYHVLNGEILVDFAYFKQLMTQQKTKPAPSSQKEQDVLTPRECLILQEVEKGFTNQEIADALHLSKRSIEYSLTSIFNKLNVGSRTEAVLIAKSDGVL
notes: ComA response regulator, Bacillus subtilis, full length; Native PAGE used 'either 10 µM ComA or 10 µM His-ComA as indicated'; Purification of ComA is in Text S1; also called ComAFL
